Consider one substance from article PMC7226325.

The target in this experiment is recombinant Tepary bean lectin (rTBL-1) (Phaseolus acutifolius (Tepary bean)). As to the kind of experiment: SEC; ENrich SEC 650 column, calibrated with gel filtration standard; 200 uL of protein at 10 mg/mL; 20 mM MES pH 6.5, 100 mM NaCl.

Regarding “recombinant Tepary bean lectin (rTBL-1) (natural protein)”, the stoichiometry N (in general, the number of molecules, sites or subunits per partner or assembly) was determined as 4.
